Reference: patent US20260117244A1, “INHIBITORY RNA FOR THE CONTROL OF PHYTOPATHOGENS” (priority 2021, published 2026)

Test system: G. orontii MGH1
Assay: Spray-induced gene silencing (SIGS), G. orontii spore production on A. thaliana (whole plant and detached leaf assays)
Format: in vivo, Golovinomyces orontii
Conditions: topical dsRNA against G. orontii target (Gor Seq ID), n>=3

Molecule	G. orontii Spore Production on Arabidopsis, Whole Plant Assay, % reduction (whole plant assay) [%]	G. orontii Spore Production on Arabidopsis, Detached Leaf Assay, % reduction [%]
122 (nucleic acid, listed as Golovinomyces orontii, listed as DNA) ATGAAAGCCAAACACCTAATTCTGACCATAGCGCTTGCGGCTACTGCGAGGGCAGAAGATCAATATGATGCTTCTGAACTACCACAGTTGAAACATCAGCAGTTAAGAATACCTTTTCCGACAGCTATTGCTGAATCGAAGTGCAGCTGTGCCACTGAATATATAACATCTACAGGCGAGGGTTTTCTTTATACTGCTGATGTATCATCAATTACCAAAAATTTTGATCCGCAACCGACTCACGAGTATCCTCTAATCGTTGAACCATCCATATCCGTTAATTGTCCGCCCCCGTCCACCATTACTGTAACCGAGACAAAATATATTACTTTGATGCCTGATCTAGCACCATCTGATCCTGCTAGTCCGATCTTAGAACCGCAAAATACCGATGCCGGACCAAACTCTCCATTAAATCCCTCTAGCCCGATATTAGATCACCCAAATACTGATACTGGGCCGCCTTCTCCACCTGCTCCAGTCGTTTCTAACATTGAGATATCTCCGTCAGCCCCAGACCCCAGCCCTGAAGTATCTTCAAAACCACATACTGGCACACTGGGATCTAACAATGGTCTGTGGGCAATCACTTTTTCTCCATTTAATGATGATGGAACGTGCAAAGGTGAGACTGCTGTTTGGGAAGATGTGCGCTTGATTCGTAGCGCTGGCTTCAAGGCAATTCGTGTCTATGGTACTGAATGTTCGGGAATTGAACACGTCAGTTCTGCCGCCAGTTTTCACGGACTAAAACTTATTATCGGTATATTTATCAGCGAATCTGGTTGTTCTGGTGCTGCGGAGCAAGTAACTCATATCACAAAATGGGCCAAATGGGAAATTGTCGAGCTAATTGTGATTGGAAACGAAGCCCTATTTAATGGCCATACTTCTCCAGATGAGCTCGCAAGATTTATTAGCTCAACCAGAAATACACTACGATCCTCTGGTTACAATGGACCTTGCACAACAGCTGAGCCTCTCAATATCTGGCAGCAAAGCTCGGATGTATTGTGTGGTGCAGTTGATATCGTTGGATGTAACATTCATCCATTTTTCAATCCAGAAGTTGACGCTAGTCATGCCGGACCTTTCGTCAAGAGTCAGCTCGAAATTGTTAATAACATTTGTCCAAGCAAATATGGTATCAACCTCGAATGTGGATGGCCTTCGGCTGGCGAGTGCAACGGCAAGGCTTGTCCTGGTGAGTCGGAGCAAAAAATTGCTGTGGAAAGCATTCAGTCATTTGCTGGCAACGTGTCGGTAATGTTTACATACACCAACGATAAATGGAAAGACCCAGGCCCCCTCAAGATTGAGCAGAGTTTCGGATTAATTAAGCTCCTGAATAGCCACTAG	33	–
87 (nucleic acid, listed as Golovinomyces orontii, listed as DNA) ATGCCTCTACGAAGAATACTAAAGAAGTCAAAATACGCCAAAAAGAGTCCAGAAGAAGAGACTGTCATAACACCCATCTTATTTATGCGTAGCGACACAAAAACAGAGGAGATTATTTATCCACCTAGTTATCCTGATCATGAAGAATCCTTACGCAGTAAAAAGGGGCGAAACAAGAAGGAAATACCTAGGACCCCTTCGGAATCTCGTAAATCATCTCTTAGACTCAAGCCAAACTTTCTGAAAAACCAGAAATCCGAAAAGGTGCCAGAAAATCTGCCAGATATAGAGATCATTGCTGATCAGGTCGAGAGGAGAATCAGGGCACAATGGGAAAAACGTGCGACAATTCTAGCCAAAAGAAATGAGGAAACAACAGCTAAGTATCTATCAATCACTGACGATAAACATGCAAAGGAGGTGAGAATGGCGAGAGAGCTGGACGAGGCAAATTCGGCCAACGATAACATTATAGAAGCAATTAGACTACATGAAGCGGGGAGCCGGCTGGCGGAGTTCCAAAATGAGAATAATACCCTCAGTCAAGTATTGTACGGTCTTTCTTTAAGGTACGCATGGCTGGGGATGTACTCCAGATCCGGAAAAGGCACTCAAATACCTTCAGCTGCAGCATCGTGTGCAGCCTCAATCGAGGATTTAGCACTTAGGGCGGGGAAGAAAAGTGGAGGAGCAGCGAAAGATGAATTAGTTCTTGCTATTTACGAGCTCGCAAATAGTTTTAGACATGGCTGGGGAATTCCGATCGACCGAGTGGCTGCGAAACAGTACTATGAGACGGCAGCTAATTTGGGTGATACGGACGCTATGAATGAAGTGGCCCGATGTTATGCCGAAGGAATCGGTTGCAAGAAAGACATGTTTGTGGCTGCTAAATACTACAGGATGGCTGAGAGTAAGGGTAACAAAATCATTGGAAACTCCTGGTACGTTGCAATTTTTGCTCTCTAA	–	42
64 (nucleic acid, listed as Golovinomyces orontii, listed as DNA) ATGGAGGCATGTGTGATCGACGTGGTGGCTACTAGGGTAGACGATTGCGAAACTCCAGCGTCGAAAGATACCTCCAACGCTTGGTGTCATCCAGGAGCTGCCGCTTTCGATTTTCGCAGTGATGTCTTTACTTCACCGACTTGCTCAATGCTCGAAGCAATCAAAAACACAACCTTACTCGATGATGTCTATCAGGCTGATCCTACCACAAATGATCTGGAATCACACTTGGCAGCGCGCACATCTCATGCCGCAGCACTGTTTGTCTTGTCTGGCACTATGGGGAATCAAATAGCTCTACGTTCTCACTTGCAACAACCACCGTATGCAATTCTTTGCGATCATCGAAGTCATATTTTTCAATGGGAAGCGGGCGGCGTTGCAAGTCTCTGCGGTGCACTTGTCAAAACTGTTGTACCAGCAAACGGTGAGTATCTTACTCGGGAAGATATTGAGAGTAATGTTGTGCTTGGTGATGATATTCATAGTACGCCTACTCGGGTTATATCTCTTGAAAATACACTGGGTGGCATTGTAATACCGCTAGAGGAGACGCGACGTATAACGAATTTTGCTCGAGAAAACAATATCAAGGTTCACCTTGATGGTGCACGATTGTGGGAGGCAGTCGCTGCAGGTGCAGGTTCACTTACCGATTATTGTGCTCTGTTTGATAGTGTAAGTCTATGTTTCTCCAAGGGACTCGGAGCACCAGTCGGCAGTATTTTAGTTGGTGGAGAGGCTTTTATCAAACATGCTAGATGGATAAGAAAGTCGATTGGTGGCGGCCTTCGTCAGCCTGGTCTGTTAACAGCAACAGCCAGGGTTGCTCTGGATGAAACGTTTGGAAGTGGCCCTTGGGGTGAAGGCGGAAAGCTAAAAGGCACTCACTTTGTAGCGAAAAGGATAACTGCACTCTGGACGTCGCTAGGTGGGAAACTACTGAGGAGGACCGAGACAAATATGGTTTGGTTAGATCTTGAGGGTTCTAAGATTAGTGTAGAGACGTTTGTGAAAATTGGAGCAGAGCATGGGGTAGCACTCGAAGGTCCAAGGCTAGTGGTGCATTATCAAATTGAAGACGCTGCAGTAGAGAAGTTAAAAGCAGTTTTTGAACAGGTCCTGCTTAAAACCTAG	–	55
70 (nucleic acid, listed as Golovinomyces orontii, listed as DNA) ATGTCAAGATCCCTTCACAATCTGAGCACCATTCAGAAGCTTTTTCCAATCTTGGGACCATCTCAAATTACTTCTAAGTTTTTGCTATGTTCACGTACATTATTTAGGCAGACTCGCTACAGTTCCCAATTTAATTTGGGCTATACCCGGGCCATTGAAAGGAAACCCTTAACTTTAAAGTCTATTGAATCTTTGTACAAAAGAGAGGAGCCCATCTTGGCACTCACTGCCCACGACTTTCCCAGTGGATATATTGCTGATGAAGCTGAGATTGAAATCGTACTTGTGGGAGACAGCCTGGCCATGGTAGCAATGGGGTTAGAAGATACAAGTGAGATTCTACTTGAAGAGATGCTACTCCATTGTCGCTCTGTTTCTCGAGCTGTGAAGACTGCTTTTACGGTAGGGGATCTTCCTATGGGATCCTATGAAGTATCCCCAGAACAGGCTCTAATTTCTGCTATTCGGATGATTAAGGAAGGTAGAGTAAAAGCTATTAAATTAGAAGGAGGCGCAGAAATGGGCCCAACCATAAAGAAAATAGTTACTGCCGGTATTCCGGTTCTCGGGCATATAGGGTTAACTCCGCAACGACAAAATTCTTTGGGCGGCTTCCGAGTACAAGGAAAGACCTCCAAGAGTGCACTCAAGATTCTTGAGGATGCATTAGCCATACAGGAAGCAGGCTGTTTTGCTGTTGTGATTGAGGCTATACCCGCAGAGGTAGCTACCATAATTACAAAGGAACTTTCAATCCCAACTATCGGTATTGGCGCTGGTAATGGCTGTTCAGGCCAAGTACTAGTTCAGGTTGATATGACTGGAAATTTTCCACCCGACCGTTCGATACCAAAATTTGTCAAAAAGTATTGTGACATTTGGAATGAGAGCTTGATGGGGATACGATCATATCGAGAAGAAACTAAGTGTAGGAAGTTTCCCGCACACGAACACACTTACTCAATCCCTAAAAATGAACTTGCTGAGTTCGAGAGAATACTAGCTTCTAAAGAACACTAG	–	46
79 (nucleic acid, listed as Golovinomyces orontii, listed as DNA) ATGTCAGCATCTAGCCTTTCTCAGTCTACAGCTGAGAAAAGACACGAAGAATATCAGTATTTAGATCTGATCTCCGAAATAGTAGAGACAGGGGAGCATCGACCAGATCGAACTGGAACTGGAACCTTTTCTTTGTTCGCGCCAAAACCTTTAAAATTCCAGCTTTCTGAATCTGGAAAGCCGATTCTGCCCCTAATTACAACCAGGCGCATCTTCTTACGTGCTGTAATCACCGAACTTCTCTGGTTCATATCCGGCTCGACCTCCTCCATTCCTCTGGTAGAAGCAGGAATAAAGATTTGGGATGGAAATGGAACCCGTGAATATCTTGATTCGGTTGGTTTATCTCATCGTGATGTTGGAGATCTTGGTCCAATATATGGATTCCAATGGCGTCATTTTGGTGCCGACTACGTTGATGCTAACACTGACTATACTGGGAAAGGGGTTGATCAACTCGCTGAAGTTGTTGCAAAACTCAAGACAAATCCATATGACCGCCGCATTATTCTTACAGCCTGGAACCCGCGGGATCTAAAGTCAATGGCTTTACCGCCTTGTCATCTTCTTGCACAATTTTACGTCTCATTCCCACAAGGTAGTAAATCTGTTGGGACTCTTCACTGTCTTTTATATCAGCGTAGCTGCGACATGGGCCTTGGAGTACCATTTAATATTGCAAGCTATGCCTTACTCACTCATATGTTGGCTCATACATGCGAACTACTGCCTGGGACTTTGACGCACACCATGGGTGATGCACATGTCTATGCCGATCATGTTGAGGCTTTAAAAACACAACTGACACGTGAGCCGCGTCCATTCCCTGAAATTGAGATTAGGAAAGAAAAAGGAGGAAGTATAGACGGCTGGCTTGTCGATGATTTTCTCATCAAAGGCTACGAACCGCACAAGTCTATCTCGATGAAGATGTCGGTGTAA	–	68
